From patent publication US20040170601A1, “Method of improving the growth performance of an animal” (priority 2001, published 2004)
Values joined by “and” are separate entries in the source; they are usually repeats but may differ in a detail not shown here. Equal values may be shown once. “Also recorded” adds a separate entry of the source.

Tests used:
eosinophils = test: Example 2: high dose and multiple dose IL-5 on eosinophil numbers in blood; assay type: in vivo, pigs; conditions: rec.IL-5 IM 100 μg x1/x2/x4 or 500 μg x1
Procedure: This trial compared 2 doses of recombinant IL-5 (100 μg/500 μg) and compared multiple injections (x1/x2/x4) of one dose (100 μg) to elevate eosinophil numbers.
The experiment was conducted using medicated feed Barastoc EziWean 150 then Bunge Grolean CREEP ad libitum in an experimental environment (PC2 containment facilities). Blood total and differential counts were performed using a CellDyn 3700 haematology machine.
8 hrs later, bleed for haematology

[1] = test system: Brachyspira (Serpulina) hyodysenteriae; test: Example 7: swine dysentery challenge, IL-5 prophylactic; assay type: in vivo, pigs; design: reduction in the number of spirochaetes compared to saline treated pigs: concentration or dose not given beside the values
Excerpt: One aim of this example was to determine whether IL-5 could improve the health of pigs infected with an enteric inflammatory pathogen causing swine dysentery, Brachyspira (Serpulina) hyodysenteriae. A further aim was to determine whether IL-5 could improve the growth rate of pigs under conditions of challenge with swine dysentery.
Male pigs with a mean starting weight of 6.5 kg, were allocated to treatment groups consisting of eight pigs (Table 6). Pigs were housed in group pens, with each pen containing a replicate from each of the treatment groups. One group of 8 pigs was housed in a separate room and left uninfected to act as untreated controls. Pigs were provided with pelleted feed and water ad libitum.
Prior to swine dysentery challenge, pigs were treated with recombinant IL-5 or saline, as described in Table 6. Cytokines and the antibiotic, Lincomycin, were delivered by intramuscular injection at intervals outlined in Table 7. Pigs were infected with Brachyspira hyodysenteriae at day 0, day 1 and day 2, given as an oral bolus of 120 ml of spirochaete culture in log phase of growth, containing approximately […].
Faecal swabs and blood samples were taken from each pig at intervals described in Table 7. Faecal swabs were cultured for the presence of spirochaetes. Blood samples were assayed for immunological parameters as described in example 1 above. Pigs were weighed at weekly intervals throughout the experiment, which was terminated by euthanasia on days 19 and 20 after the initial challenge. At post mortem swabs from areas of the hindgut were cultured for the presence of spirochaetes, and the gross pathological condition of the gastro-intestinal tissue noted.

B1: interleukin 5 (protein, UniProt Q9MYM5 22-134, looked up)
Interleukin-5: VENTMNRLVAETLTLLSIHRTLLIGDGNLMISTPVHTNHQLCIEEVFQGIDTLKNQTARGDAVEKLFQNLSLIKEYIDRQKKNCGGERWRVTQFLDYLQVFLGVINTEWTMES
notes: recombinant porcine IL-5 protein expressed in E. coli; + / − = with / without antibiotic medicated feed and water, +p = weaner period only
average percentage eosinophil of WBC over 11 days (area under the curve) (eosinophils): increased eosinophil numbers in blood and higher dose and multiple doses were statistically significant and 4 injections of 100 μg (Days 0, 1, 4, 7) being more effective than a single injection of a higher single dose (500 μg)
spirochaete shedding in faeces (faecal culture) ([1]; after challenge): decreasing levels of spirochaete shedding by day 14 after challenge
reduction in the number of spirochaetes compared to saline treated pigs ([1]; anterior colon, post mortem): 63%
reduction in the number of spirochaetes compared to saline treated pigs ([1]; caecum, post mortem): 60%
reduction in the number of spirochaetes compared to saline treated pigs ([1]; faecal, post mortem): 68%
number of spirochaetes cultured from the hindgut at post mortem ([1]; pig, in vivo): reduced the number of spirochaetes residing in the gut compared to saline controls; also recorded: comparable to that shown by the Lincocin antibiotic
incidence of clinical signs in faeces (of 8 pigs) ([1]; post mortem): 3 pigs
reduction in the number of spirochaetes compared to saline treated pigs ([1]; posterior colon, post mortem): 47%
